Data taken from US9809653B2, “Anti-LAMP1 antibodies and antibody drug conjugates, and uses thereof” (SANOFI, priority 2012, dated 2017).
Read-outs that look alike come from different tables or passages of the source.

Assays:
Colo205 cells = test: Quenching of Alexa488 by anti-Alexa488 antibody, flow cytometry, internalized fraction; format: cell-based, human
Experimental: Quantification of internalization can also be performed by fluorescence-based quenching methods. In particular, a fluorescence-based Alexa488-quenching method has been described to analyze internalisation of targeting agents (Frejd et al. 2010, International Journal of Oncology, 36: 757-763). According to said description, internalization is calculated as the Mean fluorescence intensity (MFI) value of quenched cells (intracellular compartments only) divided by the MFI value of unquenched cells (both cell surface and intracellular compartments) at 37° C., according to the following formula: […]
The cells were washed twice in ice cold PBS in a cold centrifuge, and resuspended in 500 nM quenching anti-Alexa488 antibody diluted in ice cold PBS. All tubes were incubated for 1 h on ice. Without washing, all cells were fixed in two volumes of 2% paraformaldehyde for 10 min at room temperature. The paraformaldehyde was removed by one wash in PBS, and the cells were resuspended in PBS and analyzed in a flow cytometer (Guava® easyCyte 8HT Flow Cytometry System).
An internalization positive control experiment was done in parallel with Alexa488-labelled Transferrin (600 nM).
Mean fluorescence intensity (MFI) values obtained from the flow cytometry reading of 5×10^4 cells per tube were used for all calculations. Internalization was calculated as the MFI value of quenched cells (intracellular compartments only) divided by the MFI value of unquenched cells (both cell surface and intracellular compartments) at 37° C. as described in the formula: […]

[1] = cited from earlier work
[2] = target: T1, cell surface LAMP1 on Patient-derived tumor xenografts and tumor cell lines (Homo sapiens, UniProt P11279); test: Antibody binding capacity (ABC) by FACS on patient-derived xenografts and tumor cell lines; details: FACS
T1 construct: endogenous in cells; host or cells: enzymatically dissociated patient-derived xenograft tumour cells (e.g. CR-IGR-034P, LUN-NIC-014P, BRE-IGR-0159) and tumour cell lines
T1 sequence (P11279 29-417): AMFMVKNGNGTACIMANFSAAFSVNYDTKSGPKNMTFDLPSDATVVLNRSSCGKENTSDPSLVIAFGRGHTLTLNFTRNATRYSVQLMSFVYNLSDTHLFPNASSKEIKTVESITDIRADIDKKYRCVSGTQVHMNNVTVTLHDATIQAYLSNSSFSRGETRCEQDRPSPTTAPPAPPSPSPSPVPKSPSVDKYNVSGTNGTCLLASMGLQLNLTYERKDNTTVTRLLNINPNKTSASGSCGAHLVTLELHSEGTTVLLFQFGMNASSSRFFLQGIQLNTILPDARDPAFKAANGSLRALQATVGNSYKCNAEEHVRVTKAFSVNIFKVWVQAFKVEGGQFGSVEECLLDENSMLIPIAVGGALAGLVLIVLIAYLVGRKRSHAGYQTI
Experimental: Antibody binding capacity of antibody was determined using Mouse IgG Calibrator kit (Biocytex #7208) or Human IgG Calibrator Kit (Biocytex #CP010) according to the manufacturer's instructions.
The panel of tumor cells comprises Patient-derived tumor xenografts from different origins and tumor cell lines. FIG. 2 illustrates the expression profile and Table 4 summarizes the antibody binding capacity results.
(§1) The panel of tumor cells comprises Patient-derived tumor xenografts from different origins and tumor cell lines.

[3] = target: T2, patient-derived xenografts from colon, lung and breast origin and tumor cell lines (Homo sapiens, UniProt P11279); test: Binding to patient-derived xenograft tumor cells by flow cytometry (mean fluorescence); details: for Mean Florescence Intensity (MFI): FACS
T2 construct: endogenous in cells; host or cells: enzymatically dissociated patient-derived xenograft tumour cells (e.g. CR-IGR-034P, LUN-NIC-014P, BRE-IGR-0159) and tumour cell lines
T2 sequence (P11279 29-417): T1 sequence (P11279 29-417)
Experimental: Advanced human primary tumors from colon (CR-IGR-034P), lung (LUN-NIC-014P and breast (BRE-IGR-0159) indications were obtained from patient-derived xenograft (PDX) in mice as described in example 1. PDXs were enzymatically dissociated using collagenase Type IV (Invitrogen; #17104-019) and deoxyribonuclease I (Invitrogen, #18047-019) for 1 h at 4° C. Cell viability was estimated by Viacount application using Guava® easyCyte™ 8HT Flow Cytometry System. Tumoral cells were coated at 40,000 cells/well on 96-well High Bind plate (MSD L15XB-3) and 100 μL of antibody was added at 20 μg/mL for 45 min at 4° C. and washed three times with PBS 1% BSA. 100 μL of goat anti-human IgG conjugated with Alexa488 (Invitrogen; #A11013) was added for 45 min at 4° C. and washed three times with PBS 1% BSA. The antibody binding was evaluated after centrifugation and resuspension of cells by adding 200 μL/well PBS 1% BSA and read using Guava® easyCyte™ 8HT Flow Cytometry System. The mean fluorescence was recorded and plotted in the graph shown in FIG. 12 to illustrate the expression profile of the three mAbs onto the three PDXs.
as §1

recombinant human LAMP2 = target: T3, recombinant human LAMP2 (Homo sapiens, UniProt P13473); test: Specificity ELISA on recombinant human LAMP2; format: binding
T3 construct: purchased R&D Systems 6228-LM
T3 sequence (P13473 with tags, fused parts or gaps): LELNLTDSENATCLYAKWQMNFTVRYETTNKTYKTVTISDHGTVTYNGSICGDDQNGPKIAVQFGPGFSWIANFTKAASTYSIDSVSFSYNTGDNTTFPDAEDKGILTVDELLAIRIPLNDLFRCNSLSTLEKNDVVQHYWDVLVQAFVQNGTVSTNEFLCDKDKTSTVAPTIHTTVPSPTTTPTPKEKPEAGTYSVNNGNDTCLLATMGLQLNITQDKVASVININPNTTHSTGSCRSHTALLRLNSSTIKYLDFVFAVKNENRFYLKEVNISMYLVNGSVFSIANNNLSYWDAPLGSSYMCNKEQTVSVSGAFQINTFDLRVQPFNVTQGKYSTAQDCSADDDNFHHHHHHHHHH
Experimental: LAMP2 is the closest member of the LAMP family with 35% sequence identity to LAMP1. […] Anti-LAMP1 antibodies were added to the plates and detected by using rabbit anti-mouse IgG conjugated with horseradish peroxidase (Sigma; #A9044). Antibody binding was visualized by adding TMB-H2O2 buffer and read at a wavelength of 450 nm.
LAMP2 is the closest member of the LAMP family with 35% sequence identity to LAMP1. Specificity of MAb4 was evaluated by ELISA as described in example 4.6 with either LAMP1 or LAMP2 soluble proteins, as shown in FIG. 41.

[4] = target: T4, LAMP1 in FFPE colon adenocarcinoma PDX CR-LRB-010P and human breast carcinoma (Homo sapiens, UniProt P11279); test: IHC on FFPE tumor tissue, LAMP1 membrane reinforcement; details: FFPE samples
T4 construct: from tissue; host or cells: human tumoral and non-tumoral tissue sections and PDX tumour sections (frozen-OCT, AFA, FFPE)
T4 sequence (P11279 29-417): T1 sequence (P11279 29-417)
From the text: IHC analysis of tumor tissues from biobanks or from hospitals before or during patient treatment is routinely done with formalin-fixed paraffin-embedded (FFPE) samples. […] One of the reasons is probably the effect of the formalin fixative combined to the complexity of the protein. Samples processed in frozen OCT or AFA are not routinely prepared in hospitals. Therefore, there is a need to have a mAb that would allow complete and fast coverage of the FFPE tumor biobanks and hospital samples.
Rabbit polyclonal antibodies generated with peptides described in example 17.1.1 were tested by IHC on FFPE sample of colon adenocarcinoma patient derived xenograft CR-LRB-010P and human breast carcinoma. After antigen retrieval procedure and endogen biotins blocking steps, slides were incubated with the primary anti-antibody for 1 hour at 24° C. Negative controls were performed by omission of the primary antibody. The biotin free anti-rabbit UltraMap™ horseradish peroxidase (HRP) conjugate (760-4315, Ventana Medical Systems, Inc, USA) was used as secondary antibody system according to manufacturer's recommendations. A couterstaining step was done with hematoxylin (760-2037, Ventana Medical Systems, Inc, USA) and bluing reagent was applied (760-2037, Ventana Medical Systems, Inc, USA). Stained slides were dehydrated and coverslipped with cytoseal XYL (8312-4, Richard-Allan Scientific, USA).
As the same manner as in example 17.1.2, IHC screening was performed with the hybridoma supernatant to identify mouse monoclonal antibody showing LAMP1 membrane reinforcement on FFPE sample of colon adenocarcinoma patient derived xenograft CR-LRB-010P. The biotin free anti-mouse UltraMap™ horseradish peroxidase (HRP) conjugate (760-152, Ventana Medical Systems, Inc, USA) was used as secondary antibody system according to manufacturer's recommendations.

[5] = Colo205, 4 h, 500 nM quenching anti-Alexa488 antibody

Molecule: Alexa488-Transferrin: internalization positive control
- MFI 4° C. Quencher (Colo205 cells; [5]): 8.98
- MFI 37° C. Quencher (Colo205 cells; [5]): 1210
- MFI 4° C. (Colo205 cells; Colo205, 4 h, unquenched): 35.78
- MFI 37° C. (Colo205 cells; Colo205, 4 h, unquenched): 1228
- total cell fluorescence that was intracellular (Colo205 cells; Colo205, after 4 h at 37° C.): about 98.5%

Molecule: transferrin: transferrin, literature internalization reference
- IS ([1]; cells incubated at 37° C. for one hour): 0.9
- IS ([1]; cells left on ice): 0

B1: MAb4: mouse monoclonal anti-LAMP1 antibody from hybridoma 88LAMP1-2, VH SEQ ID NO: 88, VL SEQ ID NO: 89 (antibody, listed as Mus musculus, V domains shown)
VH: QVQLQQSGAELVRPGTSVKVSCKASGYAFTNYLIEWVKQRPGQGLEWIGVINPGSGGTNYNEKFKGKATLTADKSSSTAYMQLSSLTSDDSAVYFCARYRSYDWYFDVWGAGTTVTVSS
VL: DIQMTQSPASLSASVGETVTITCRVSGNIHNYLAWYQQKQGKSPQLLVYNAKTLADGVPSRFSGSGSGTQYSLKINSLQPEDFGSYYCQHFWSNPYTFGGGTKLEIK
- Antibody Binding Capacity (ABC) ([2]; CR-IGR-034P/colorectal PDX): 260 000
- Antibody Binding Capacity (ABC) ([2]; Colo205/colon cell line): 3000
- Antibody Binding Capacity (ABC) ([2]; LUN-NIC-006/lung PDX): 92 000
- Antibody Binding Capacity (ABC) ([2]; LUN-NIC-033/lung PDX): 87 000
- Mean Florescence Intensity (MFI) ([3]; BRE-IGR-0159/breast PDX): 400
- Mean Florescence Intensity (MFI) ([3]; CR-IGR-034P/colorectal PDX): 424
- Mean Florescence Intensity (MFI) ([3]; Colo205/colon cell line): 7
- Mean Florescence Intensity (MFI) ([3]; LUN-NIC-006/lung PDX): 162
- Mean Florescence Intensity (MFI) ([3]; LUN-NIC-033/lung PDX): 154
- binding to tumor cells by flow cytometry ([3]; PDX and tumor cell lines): able of binding to multiple tumor cells
- binding to LAMP2 (recombinant human LAMP2): No binding
- difference between the EC50 towards LAMP1 versus LAMP2 (recombinant human LAMP2): more than 100 fold
- LAMP1 membrane reinforcement in FFPE format by IHC [4]: displayed membrane reinforcement immunostaining
